From PMC4367193 (Biochemistry, 2009)

Experiments:
[1] = target: T1, Aβ42WT (Homo sapiens, UniProt P05067); format: biochemical; details: 37°C
[2] = target: T1, Aβ42WT; test: Circular dichroism spectroscopy, Aβ42WT β-sheet formation; format: biochemical
[3] = system: Aβ; format: binding, 5xFAD mouse; details: soluble cortical homogenate, polyclonal anti-MBP IgG, Fig. 1D
[4] = target: T1, Aβ42WT; test: Thioflavin T fluorescence assay, Aβ42WT fibril formation; format: biochemical; details: Aβ42 12.5 μM, MBP 1.56 μM, 37°C, 150 mM NaCl; triplicate
[5] = target: T1, Aβ42WT; test: Surface plasmon resonance, binding to immobilised Aβ42WT
[6] = system: Aβ40DI; details: previous study; ref [25] Hoos et al. 2007; cited from earlier work
[7] = target: T1, Aβ42WT; test: Attenuated total reflection infrared spectroscopy, Aβ42WT β-sheet formation; format: biochemical; details: Aβ42 50 μM in PBS, MBP 6.25 μM, 37°C, 24 h; second-derivative ATR-IR
[8] = system: Aβ; format: binding, human; details: soluble cortical homogenate, polyclonal anti-MBP IgG, Fig. 1D
[9] = target: Aβ40DI; test: Surface plasmon resonance, binding to Aβ40DI; details: ECP negative control; SPR
[10] = system: MBP/Aβ42WT interaction; test: Competitive co-immunoprecipitation, binding of Aβ42WT to MBP; parameters: species or system human; details: data not shown
[11] = target: Aβ40WT; test: Surface plasmon resonance, binding to Aβ40WT; details: ECP negative control; SPR

T1 sequence (P05067 672-713 limits assumed): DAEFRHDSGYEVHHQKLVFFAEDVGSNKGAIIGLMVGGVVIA

For “Aβ42WT: wild-type Aβ42 peptide, synthesized by solid-phase Fmoc chemistry”, the “Length of oligomeric structures” value ([1]; Aβ42WT alone, 6 h) was “up to 40 nm”, the “Average height of fibrillar structures” value ([1]; Aβ42WT alone, 24 h) was “over 4 nm” and the “Time at which β-sheet formation begins to plateau (CD, 215 nm)” value ([2]; Aβ42WT alone 50 μM, 37°C, 11 mM NaCl, results section) was 24 h.

B1: MBP: Purified human MBP (purchased from Chemicon International) (protein, UniProt P02686 1-304, looked up)
Myelin basic protein: MGNHAGKRELNAEKASTNSETNRGESEKKRNLGELSRTTSEDNEVFGEADANQNNGTSSQDTAVTDSKRTADPKNAWQDAHPADPGSRPHLIRLFSRDAPGREDNTFKDRPSESDELQTIQEDSAATSESLDVMASQKRPSQRHGSKYLATASTMDHARHGFLPRHRDTGILDSIGRFFGGDRGAPKRGSGKDSHHPARTAHYGSLPQKSHGRTQDENPVVHFFKNIVTPRTPPPSQGKGRGLSLSRFSWGAEGQRPGFGYGGRASDYKSAHKGFKGVDAQGTLSKIFKLGGRDSRSGSPMARR
With B1 the “Interaction of MBP with Aβ in 5xFAD mouse brain homogenate” value [3] was “MBP can interact with Aβ peptides”, the “Oligomeric structures at 6 h in the presence of MBP” value ([1]; 6 h, AFM and TEM) was “marked reduction” and the “Fibrils at 24 h in the presence of MBP” value ([1]; 24 h, TEM) was “noticeably absent”. For the same molecule, the “Thioflavin-T fluorescence in samples containing Aβ42WT and MBP” value [4] was “lack of thioflavin-T fluorescence”, the “Absolute CD ellipticity at 215 nm with MBP” value ([2]; MBP alone and Aβ42WT (50 μM) with MBP (6.25 μM), 37°C, 0-36 h) was “remained low and decreased somewhat over the course of incubation” and the “Conformation of MBP alone by CD” value ([2]; MBP alone, throughout the time-course, data not shown) was “characteristic random-coil conformation”. The “KD with Aβ42WT compared with Aβ40DI” value ([5]; calculated KD between MBP and Aβ42WT versus affinity between MBP and Aβ40DI (ref [25])) was “comparable to the affinity between MBP and Aβ40DI”, the “KD with Aβ42WT compared with Aβ40WT” value ([5]; calculated KD between MBP and Aβ42WT versus that between MBP and Aβ40WT (ref [25])) was “stronger than that between MBP and Aβ40WT” and the “Inhibition of fibrillar assembly of Aβ40DI” value [6] was “effectively inhibits the fibrillar assembly of Aβ40DI”. For the same molecule, the “β-turn peaks at 1681 and 1675 cm^−1 on addition of MBP” value [7] was “remained unchanged even with the addition of MBP” and the “Interaction of MBP with Aβ in human AD brain homogenate” value [8] was “MBP can interact with Aβ peptides”.

B2: ECP: Eosinophil cationic protein, very similar charge and molecular mass compared to MBP, negative control (protein, UniProt P12724 28-160, looked up)
Eosinophil cationic protein: RPPQFTRAQWFAIQHISLNPPRCTIAMRAINNYRWRCKNQNTFLRTTFANVVNVCGNQSIRCPHNRTLNNCHRSRFRVPLLHCDLINPGAQNISNCTYADRPGRRFYVVACDNRDPRDSPRYPVVPVHLDTTI
For B2, the “Binding affinity (KD) for Aβ40DI, ECP” value [9] was “not detected”, the “Competition of ECP with MBP for binding to Aβ42” value [10] was “did not compete for MBP binding to Aβ42” and the “Binding affinity (KD) for Aβ40WT, ECP” value [11] was “not detected”. The “Detectable binding to Aβ42WT ligand surface” value ([5]; concentrations up to 32-fold greater than MBP, SPR) was “No binding could be detected”.
